The subject of data set [1] is OmpL1-PhoA fusion protein [phosphatase: P00634].
The target in data set [2] is OmpL1, 31 kD outer membrane protein of Leptospira alstoni (native protein) (Leptospira alstoni serovar grippotyphosa). The experiment in a line: immunoelectron microscopy of intact L. alstoni, protein G-colloidal gold (control serum).

The results in this text go back to US6685945.

Sequence of OmpL1-PhoA fusion protein [phosphatase: P00634] (P00634 27-471): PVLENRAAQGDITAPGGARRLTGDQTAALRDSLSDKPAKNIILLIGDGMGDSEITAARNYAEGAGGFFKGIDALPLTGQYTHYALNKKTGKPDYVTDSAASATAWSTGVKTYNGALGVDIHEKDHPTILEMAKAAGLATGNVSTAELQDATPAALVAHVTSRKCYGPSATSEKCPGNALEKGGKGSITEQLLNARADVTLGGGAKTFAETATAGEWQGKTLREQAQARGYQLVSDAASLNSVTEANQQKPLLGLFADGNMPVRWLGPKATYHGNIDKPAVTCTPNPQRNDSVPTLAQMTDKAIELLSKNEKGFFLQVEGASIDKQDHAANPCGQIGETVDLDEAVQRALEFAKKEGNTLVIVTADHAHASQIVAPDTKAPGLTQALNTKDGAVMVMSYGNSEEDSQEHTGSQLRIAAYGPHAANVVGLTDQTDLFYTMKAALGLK

“E. coli leader peptidase 1 (strain IT41, temperature sensitive mutation)”: the “cleavage of the OmpL1-PhoA fusion protein in E. coli IT41” value in data set [1] was “Cleavage of the OmpL1-PhoA fusion protein was demonstrated at the permissive temperature of 32° C., but not at the restrictive temperature of 37 °C”.
In data set [2], “preimmune serum from the same rabbit as the anti-OmpL1 antiserum (antibody)” returned a gold particles per twenty organisms (particles per twenty organisms) of 1.
